From patent US20230257469A1 (SINOCELLTECH, published 2023)
Where two headings read alike, the source gives them in different places.

Experiments:
[1] = target: T1, Recombinant human EGFR-His protein (human, UniProt P00533 25-645); experiment: ELISA as in Example 1.2.1
T1 construct: Bought protein; also called recombinant human EGFR protein; human EGFR protein; not shown: His tag

[2] = target: T2, EGFR on tumor cells (UniProt P00533 25-1210, limits assumed); experiment: cell-based or functional assay
[3] = target: T2, EGFR on tumor cells; experiment: cell-based or functional assay; remark: listed apart in the source
[4] = target: T1, Recombinant human EGFR-His protein; experiment: ELISA; EGFR-His coated at 1.37-3000 ng/mL, antibody at 13.89 nM; EC50 counted on the coated antigen concentration
[5] = target: T1, Recombinant human EGFR-His protein; experiment: ELISA as in Example 1.2.1; EC50 counted on the coated EGFR-His concentration
[6] = target: T2, EGFR on tumor cells; experiment: cell-based or functional assay; remark: listed apart in the source
[7] = target: T2, EGFR on tumor cells; experiment: cell-based or functional assay; remark: listed apart in the source
[8] = target: T1, Recombinant human EGFR-His protein; experiment: BLI (Fortebio OctetRED96e), biotinylated recombinant human EGFR protein, fit over several concentrations
[9] = target: T1, Recombinant human EGFR-His protein; experiment: ELISA of expressed phage-library clones on recombinant human EGFR protein

SCT200 (antibody)
EC50 [1]: 0.167 µg/mL | EC50 (nM), inhibition of proliferation of Fadu cells, ligand: 1 µg /mL EREG [2]: 14.5 nM | EC50 (nM), inhibition of proliferation of Fadu cells, ligand: None [2]: 0.129 nM | EC50 (nM), inhibition of proliferation of MDA-MB-468 cells, ligand: 8 ng/mL HB-EGF [2]: 7.52 nM | EC50 (nM), inhibition of proliferation of MDA-MB-468 cells, ligand: 1 µg/mL EREG [2]: 1.44 nM | EC50 (nM), inhibition of proliferation of MDA-MB-468 cells, ligand: None [2]: 1.97 nM | Maximum inhibition rate (%), proliferation of Fadu cells, ligand: 4 ng/mL EGF [2]: 68.5% | Maximum inhibition rate (%), proliferation of Fadu cells, ligand: 8 ng/mL HB-EGF [2]: 65% | Maximum inhibition rate (%), proliferation of Fadu cells, ligand: 1 µg /mL EREG [2]: 48.3% | Maximum inhibition rate (%), proliferation of Fadu cells, ligand: None [2]: 49.7% | Maximum inhibition rate (%), proliferation of MDA-MB-468 cells, ligand: 8 ng/mL HB-EGF [2]: 53.4% | Maximum inhibition rate (%), proliferation of MDA-MB-468 cells, ligand: 200 ng/mL BTC [2]: 40.9% | Maximum inhibition rate (%), proliferation of MDA-MB-468 cells, ligand: 1 µg/mL EREG [2]: 66.7% | Maximum inhibition rate (%), proliferation of MDA-MB-468 cells, ligand: None [2]: 52.3%

B1: human-mouse chimeric antibody EGFR-mhPA8 (antibody, human IgG1, kappa, V domains shown)
VH: QVQLQQSGPDLVKPGASVRISCKVSGYTFTTYYTHWVKQRPGRGLEWIGWIYPGDVNTKYNEKFKGKATLTADKTSSTAYMQLSSLTSEDSAVYFCAREDPGSNYFDYWGQGTTLTVSS
VL: DIQMTQSPASLAASVGETVTITCRASENIYYSLAWYQQKEGKSPQLLIYITNGLADGVPSRFSGSGSGTQYSMKIDSMQPEDTATYFCKQSYDVPLTFGAGTKLEMKR
notes: Human IgG1 and kappa constant regions; also called murine antibody EGFR-mhPA8
EC50 of inhibition of proliferation of MDA-MB-468 cells (WST-8) [3]: 2.78 nM | EC50 [4]: 0.129 µg/mL

B2: humanized antibody EGFR-HPA8 (antibody, human IgG1, kappa, V domains shown)
VH: EVQLVQSGAEVKKPGATVKISCKVSGYTFTTYYTHWVKQAPGKGLEWIGWIYPGDVNTKYNEKFKGRVTLTADTSTDTAYMELSSLRSEDTAVYYCAREDPGSNYFDYWGQGTLVTVSS
VL: DIQMTQSPSSLSASVGDRVTITCRASENIYYSLAWYQQKPGKAPQLLIYITDGLADGVPSRFSGSGSGTDYTLKIDSLQPEDFATYYCKQSYDVPLTFGGGTKVEIKR
notes: IgG1/kappa; expressed in HEK-293 cells (fut8 knockout), ADCC-enhanced; also called EGFR-HPA8-Ae0
EC50 for the induction of ADCC, recombinant CD16a reporter gene system (Jurkat-NFAT-Luc2p-CD16A effector cells, A431 target cells) [3]: 8 pM | EC50 [5]: 0.117 µg/mL | EC50 (nM), inhibition of proliferation of Fadu cells, ligand: 1 µg /mL EREG [6]: 10.9 nM | EC50 (nM), inhibition of proliferation of Fadu cells, ligand: None [6]: 0.126 nM | EC50 (nM), inhibition of proliferation of MDA-MB-468 cells, ligand: 8 ng/mL HB-EGF [7]: 2.64 nM | EC50 (nM), inhibition of proliferation of MDA-MB-468 cells, ligand: 1 µg/mL EREG [7]: 0.81 nM | EC50 (nM), inhibition of proliferation of MDA-MB-468 cells, ligand: None [7]: 0.9 nM | Kd [8]: 6.9 pM | koff [8]: 1.1e-05 s⁻¹ | kon [8]: 1.59e+06 M⁻¹ s⁻¹

B3: EGFR-mhPA8 scFv antibody (scFv)
scFv: DIQMTQSPASLAASVGETVTITCRASENIYYSLAWYQQKEGKSPQLLIYITNGLADGVPSRFSGSGSGTQYSMKIDSMQPEDTATYFCKQSYDVPLTFGAGTKLEMKSSGGGGSGGGGGGSSRSSQVQLQQSGPDLVKPGASVRISCKVSGYTFTTYYTHWVKQRPGRGLEWIGWIYPGDVNTKYNEKFKGKATLTADKTSSTAYMQLSSLTSEDSAVYFCAREDPGSNYFDYWGQGTTLTVSS
notes: Screened as a clone of a phage display library in pComb3x; also called EGFR-mhPA8 scFv antibody clone; murine antibody scFv
binding result [9]: binds
